Biological target: catalytic subunit α of PKA (PKA-Cα) (human (endogenous in HCT116 and HCT-15), UniProt P17612 1-351)
Experiment: co-IP; immunoprecipitation with anti-PKA Cα (4782, Cell Signaling) and protein-G Sepharose from 2 mg HCT116 lysate, 2 h at 4 °C, IP lysis buffer (50 mM tris/HCl pH 7.4, 150 mM NaCl, 0,25% NP-40); cells mitotically arrested (2 µM dimethylenastron, 16 h) or asynchronous with DMSO, E2, BPA, DES or G-1 for 48 h; Western blot, Centrin-pS170 band normalised to precipitated PKA Cα
Conditions: partners not purified

- fold increase of co-precipitated Centrin-pS170 (normalised to PKA-Cα) with BPA, relative to DMSO: 1.8 fold
- fold increase of co-precipitated Centrin-pS170 (normalised to PKA-Cα) with DES, relative to DMSO: 1.6 fold
- fold increase of co-precipitated Centrin-pS170 (normalised to PKA-Cα) with E2, relative to DMSO: 1.4 fold
B1: Centrin-2 phosphorylated at serine 170 (Centrin-2-pS170) (natural protein, human (endogenous in HCT116 and HCT-15), UniProt P41208 1-172, looked up)
chain: MASNFKKANMASSSQRKRMSPKPELTEEQKQEIREAFDLFDADGTGTIDVKELKVAMRALGFEPKKEEIKKMISEIDKEGTGKMNFGDFLTVMTQKMSEKDTKEEILKAFKLFDDDETGKISFKNLKRVAKELGENLTDEELQEMIDEADRDGDGEVSEQEFLRIMKKTSLY
modifications: phosphoserine at 170
notes: Centrin-2, human, endogenous, the form phosphorylated at S170 as detected by the anti-Centrin-2-pS170 antibody (raised against Cys-LRIMKKT(pS)LY172); NM_004344.3 is printed for the Centrin wild-type expression vector, not for the endogenous protein of the co-IP; also called Centrin-pS170; phosphorylated Centrin-2; source: endogenous, HCT116 and HCT-15 lysates

Source: PMC12673129, “A GPER-PKA-Centrin axis regulates centrosome numbers and centriole integrity in colon cancer cells” (Communications Biology, 2025)
